Measurements: the RNAGym collection of RNA variant scans (doi:10.1021/acssynbio.7b00057)

B1: Pistol ribozyme (parent)
chain: GGGUCGUUGUUCCAUAAUCGCGUGGAUAUGGCACGCAAGUUUCUACCGGGCACCGUAAAUGUCCGACUGGAGCCGUUCGGGCGGCUAUAAACAGACCUCAGGCCCGAAGCGUGGCGGCACCUGCCGCCGGUGGUAAAAAAGAUCGGAAGAGCACACGUCU

Variants of: B1
Experiment: aptazyme ON/OFF ratio, guanine; higher = stronger switching; co-transcriptional cleavage with and without guanine

In order of rising “aptazyme ON/OFF ratio” value:
1. U8A G9C U10C U11G  0.775
2. U8A G9C U10C U11A  0.878
3. U8A G9A U10G U11A C12U C13U  0.98
4. U8A G9C U10C U11C C13U  0.998
5. U8A G9C U10C U11C C12U  1
6. U8A G9C U10A U11C C13U  1
7. U8A G9C U10C C13G  1.01
8. U8A G9C U10C C13A  1.01
9. U8A G9C U10C U11C  1.01
10. U8A G9C U10A U11C  1.01
11. U8A G9C U10C U11C C12U C13A  1.01
12. U8A G9C U10C U11C C12U C13G  1.01
13. U8A G9C U10C U11C C12G  1.01
14. U8A G9A U10G U11A  1.02
15. U8A G9A U10C U11C C12A C13U  1.02
16. U8A G9C U10C U11C C13A  1.02
17. U8A G9A U10G U11A C13G  1.02
18. U8A G9C U10C U11C C12U C13U  1.03
19. U8A G9A U10C U11C C13G  1.03
20. U8A G9A U10C U11C C13A  1.03
21. U8A G9C U10C U11A C12G  1.03
22. U8A G9A U10C U11C C12G C13A  1.03
23. U8A G9C U10G U11A  1.03
24. U8A G9A U10G U11A C13A  1.03
25. U8A G9C U10A U11C C13G  1.03
26. U8A G9C U10C U11A C12A C13A  1.04
27. U8A G9A U10G U11C C13U  1.04
28. U8A G9C U10C U11C C12A  1.04
29. U8A G9A U11A C12G C13U  1.04
30. U8A G9A U10C U11C C12U C13A  1.04
31. U8A G9C U10C U11A C12A C13G  1.05
32. U8A G9A U10G U11C  1.05
33. U8A G9A U10C U11C C13U  1.05
34. U8A G9A U10G U11C C13G  1.05
35. U8A G9A U10C U11C C12G  1.05
36. U8A G9A U10C U11C C12U C13U  1.05
37. U8A G9A U10C U11C C12U C13G  1.05
38. U8A G9C U10C C13U  1.06
39. U8A G9C U10A U11G C12A  1.06
40. U8A G9C U10A C13G  1.06
41. U8A G9C U10C U11A C12A  1.06
42. U8A G9C U10A U11C C12U  1.06
43. U8A G9C U10C U11A C12G C13A  1.06
44. U8A G9C U10C U11C C13G  1.06
45. U8A G9A U10G U11A C13U  1.06
46. U8A G9C U10C U11A C12U C13G  1.06
47. U8A G9A U10G U11G  1.07
48. U8A G9A U10C U11C C12A C13A  1.07
49. U8A G9A U10G U11C C13A  1.07
50. U8A G9A U10C U11C C12G C13U  1.07
51. U8A G9C U10C U11A C13G  1.07
52. U8A G9C U10A U11C C12U C13A  1.07
53. U8A G9A U10G U11A C12U C13G  1.07
54. U8A G9C U10C U11A C12U C13A  1.07
55. U8A G9A U10C U11C C12U  1.07
56. U8A G9C U10G U11A C12U C13U  1.08
57. U8A G9C U10A U11A C13G  1.08
58. U8A G9A U10C U11C C12A  1.08
59. U8A G9A U11G C13G  1.09
60. U8A G9A U10G U11G C12A  1.09
61. U8A G9C U10A U11C C12U C13U  1.09
62. U8A G9A U11C C12U  1.09
63. U8A G9A U10C U11C C12A C13G  1.1
64. U8A G9C U10A U11C C12G  1.1
65. U8A G9C U10A U11C C13A  1.1
66. U8A G9C U10G C12U C13G  1.11
67. U8A G9C U10G U11A C12U C13G  1.11
68. U8A G9C U10A C12G C13G  1.11
69. U8A G9C U10C U11A C13U  1.11
70. U8A G9A U11A C12G C13A  1.11
71. U8A G9C U10G U11A C12U C13A  1.12
72. U8A G9C U10C U11A C12G C13G  1.12
73. U8A G9A U10G U11A C12U C13A  1.12
74. U8A G9C U10C U11A C12A C13U  1.13
75. U8A G9A U11G C13A  1.13
76. U8A G9C U10A C13U  1.13
77. U8A G9C U10C U11A C12U  1.13
78. U8A G9A U10C U11C C12G C13G  1.13
79. U8A G9C U10C U11A C12U C13U  1.13
80. U8A G9C U10A C12U  1.14
81. U8A G9C U10A C12G C13U  1.14
82. U8A G9C C12G C13G  1.14
83. U8A G9A U10G U11C C12U C13U  1.15
84. U8A G9C C12U C13G  1.15
85. U8A G9C U10A U11G C12G C13A  1.15
86. U8A G9C U10A C13A  1.15
87. U8A G9C U10G U11A C12G C13U  1.15
88. U8A G9A U10G C12A C13G  1.15
89. U8A G9C U10A U11C C12U C13G  1.15
90. U8A G9A U10G U11C C12U C13G  1.16
91. U8A G9C U10A U11G C12G C13G  1.16
92. U8A G9C U10G U11A C12A C13G  1.16
93. U8A G9A U10C U11G C13A  1.16
94. U8A G9A U10G C12G  1.16
95. U8A G9C U10C U11A C12G C13U  1.16
96. U8A G9C U10C U11A C13A  1.16
97. U8A G9A U11C C12A  1.16
98. U8A G9C U10A U11A C13A  1.16
99. U8A G9A U10C U11A C12A C13A  1.16
100. U8A G9C U10A U11A C12U C13U  1.17
101. U8A G9C U10A C12G  1.17
102. U8A G9A U11G C13U  1.17
103. U8A G9A U10C U11G C12A C13U  1.17
104. U8A G9A U10C U11G C13U  1.17
105. U8A G9C U10G C12G  1.17
106. U8A G9A U11C C12G  1.17
107. U8A G9A U10C U11A C12A C13U  1.17
108. U8A G9C U10A U11A C12U C13A  1.18
109. U8A G9C U10A U11G C12G  1.18
110. U8A G9C U10G U11A C12A C13A  1.18
111. U8A G9A U11G C12U C13G  1.18
112. U8A G9A U10C U11G C13G  1.18
113. U8A G9C U10G C12A  1.18
114. U8A G9A U11A C12U C13G  1.18
115. U8A G9C U10A U11A C12U C13G  1.19
116. U8A G9A U10C U11G C12A C13A  1.19
117. U8A G9C U10A C12G C13A  1.19
118. U8A G9C U10A U11A C12A C13G  1.19
119. U8A G9C C12U C13U  1.2
120. U8A G9C C12G C13A  1.2
121. U8A G9A U10G U11G C12U  1.2
122. U8A G9A U10G C12A  1.2
123. U8A G9A U11A C12G C13G  1.2
124. U8A G9C  1.2
125. U8A G9A U10G U11C C12U C13A  1.21
126. U8A G9C U10G C12U C13A  1.21
127. U8A G9C C12U C13A  1.21
128. U8A G9C U10A U11G C12G C13U  1.21
129. U8A G9A U10G C13G  1.21
130. U8A G9C U10A U11C C12A  1.21
131. U8A G9C U10G U11A C12A C13U  1.21
132. U8A G9C U10A U11A C12A C13A  1.21
133. U8A G9C U10G C12U C13U  1.22
134. U8A G9C U10A U11A C13U  1.22
135. U8A G9A U10C U11G C12A C13G  1.23
136. U8A G9A U11G C12U C13A  1.23
137. U8A G9A U11G C12G C13A  1.23
138. U8A G9C U10A U11A C12U  1.24
139. U8A G9A U10C U11A C12A C13G  1.24
140. U8A G9C U10A U11G C12U  1.25
141. U8A G9C U10A U11A C12A  1.25
142. U8A G9A U11A C12A C13G  1.25
143. U8A G9C U10G U11A C12G C13A  1.26
144. U8A G9A U11G C12G C13G  1.26
145. U8A G9A U10G U11G C12G  1.26
146. U8A G9C U10A C12A  1.27
147. U8A G9C C12G C13U  1.27
148. U8A G9A U11G C12G C13U  1.27
149. U8A G9C U10G U11A C12G  1.28
150. U8A G9C U10G C12U  1.28
151. U8A G9A U10G C13A  1.29
152. U8A G9A U10G C13U  1.29
153. U8A G9A U11A C12U C13U  1.29
154. U8A G9C U10A U11G  1.3
155. U8A G9A U11A C12A C13A  1.3
156. U8A G9C U10G U11A C12A  1.31
157. U8A G9A U11A C12A C13U  1.35
158. U8A G9A U10G C12A C13U  1.36
159. U8A G9C U10A U11A  1.37
160. U8A G9C U10A U11A C12A C13U  1.37
161. U8A G9C U10A U11A C12G  1.37
162. U8A G9A U11A C12U C13A  1.39
163. U8A G9A U10G C12A C13A  1.42
164. U8A G9A U10G  1.46
165. U8A G9A U10G C12U  1.5
166. U8A G9A U11G C12U C13U  1.51
167. U8A G9C U10G U11A C12G C13G  1.52
